Source: article PMC6034511

System: HIV-1 RT p66/p51 wild type (HIV-1)
Assay: fluorescence polarization
Settings: not stated in the held text (SI Experimental section)

5'-fluorescein DNA/RNA hybrid was tested. Which Kd did it give?
The Kd was 3.5 nM.
